Reference: PMC9510110, “Assignment of IVL-Methyl side chain of the ligand-free monomeric human MALT1 paracaspase-IgL3 domain in solution” (Biomolecular Nmr Assignments, 2022)

Molecular target: the molecule itself
Assay: anion-exchange chromatography (Q-Sepharose HP); purification step after Ni2+ Sepharose; monomer and dimer forms separated on the column; followed by SEC on Superdex 200 in 20 mM HEPES 7.4, 50 mM NaCl, 1 mM DTT

B1: human MALT1(Casp-IgL3)338–719 (domain or fragment, UniProt Q9UDY8 338-719, looked up)
chain: PLAKDKVALLIGNMNYREHPKLKAPLVDVYELTNLLRQLDFKVVSLLDLTEYEMRNAVDEFLLLLDKGVYGLLYYAGHGYENFGNSFMVPVDAPNPYRSENCLCVQNILKLMQEKETGLNVFLLDMCRKRNDYDDTIPILDALKVTANIVFGYATCQGAEAFEIQHSGLANGIFMKFLKDRLLEDKKITVLLDEVAEDMGKCHLTKGKQALEIRSSLSEKRALTDPIQGTEYSAESLVRNLQWAKAHELPESMCLKFDCGVQIQLGFAAEFSNVMIIYTSIVYKPPEIIMCDAYVTDFPLDLDIDPKDANKGTPEETGSYLVSKDLPKHCLYTRLSSLQKLKEHLVFTVCLSYQYSGLEDTVEDKQEVNVGKPLIAKLDMHR
notes: Expressed with isotope labels (2H, 15N, 13C; Ile/Val/Leu methyl labelling) in M9 medium; also called MALT1 paracaspase-IgL3 domain; source: E. coli T7 express, pET21b, purified (Ni2+ Sepharose, Q-Sepharose HP, SEC Superdex 200); not shown: His6, C-terminal, kept
binding result: binds
